Results as given in US20130274185A1, “Pharmaceutical for Pseudo-Exercise Therapy” (THE UNIVERSITY OF TOKYO, priority 2010, published 2013).

How the values were obtained:
AMPK = AMPK phosphorylation in C2C12 myocytes; type: cell-based, mouse; settings: C2C12 myocytes, adiponectin 30 μg/ml
Protocol: (§1) The mouse C2C12 myoblasts were grown in 90% Dulbecco's modified high glucose Eagle's medium containing 10% (v/v) fetal bovine serum. When the cells reached 80% confluent, the myoblasts were induced to differentiate into myocytes by replacing the medium with a low serum differentiation medium (98% Dulbecco's modified high glucose Eagle's medium, 2.5% (v/v) horse serum). The medium was changed daily. The C2C12 cells were transfected by using Pofectamine 2000 (Invitrogen) and following the manufacturer's instructions.

PGC-1α = PGC-1α acetylation in C2C12 myocytes; type: cell-based, mouse; settings: treatment for 2 hr
Protocol: as §1

HDAC5 = HDAC5 phosphorylation in C2C12 myocytes; type: cell-based, mouse; settings: adiponectin 30 μg/ml, 0-20 min
Protocol: as §1

AdipoR1 = molecular target: T1, AdipoR1 (Mus musculus, UniProt Q91VH1); assay: Electrophysiological recording in Xenopus oocytes expressing AdipoR1; type: cell-based
T1 construct: expressed in transfected cells; host or cells: Xenopus oocytes (stage V to VII), cRNA synthesized from linearized modified pSPUTK
T1 sequence (Q91VH1 1-375): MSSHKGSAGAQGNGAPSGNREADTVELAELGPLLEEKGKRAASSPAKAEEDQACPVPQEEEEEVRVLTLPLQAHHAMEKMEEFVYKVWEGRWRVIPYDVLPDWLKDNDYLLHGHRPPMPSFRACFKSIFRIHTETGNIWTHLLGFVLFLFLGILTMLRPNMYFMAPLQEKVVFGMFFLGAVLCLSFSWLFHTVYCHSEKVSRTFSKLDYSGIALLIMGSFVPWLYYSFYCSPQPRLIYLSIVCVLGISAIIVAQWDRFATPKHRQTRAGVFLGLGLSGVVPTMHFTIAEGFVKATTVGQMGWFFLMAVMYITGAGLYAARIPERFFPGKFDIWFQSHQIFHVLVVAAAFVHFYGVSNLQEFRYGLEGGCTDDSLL
Protocol: Stage V to VII oocytes were treated with 2 mg/ml of collagenase S-1 (Nitta gelatin) in calcium ion-free saline solution (82.5 mM NaCl, 2 mM KCl, 1 mM MgCl2, and 5 mM HEPES, pH 7.5) for 1 to 2 hr at room temperature. The resulting oocytes were then microinjected with 50 ng of cRNA for mAdipoR1. The cRNA was synthesized from linearized modified pSPUTK. The injected oocytes were incubated for 3 days at 18° C. in a bath solution (88 mM NaCl, 1 mM KCl, 0.3 mM Ca(NO3)2, 0.4 mM CaCl2, 0.8 mM MgSO4, 2.4 mM […], 15 mM HEPES, pH 7.6) supplemented with 10 μg/ml of penicillin and streptomycin.
Whole cell currents were recorded with a two-electrode voltage clamp technique. Intracellular glass electrodes were filled with 3M KCl. Signals were amplified with an OC-725C amplifier (Warner Instruments), low-pass filtered at 50 Hz, and digitized at 1 kHz. A control bath solution contained 115 mM NaCl, 2.5 mM KCl, 1.8 mM CaCl2, and 10 mM HEPES. It was titrated to pH 7.2 with NaOH. A calcium ion free solution containing 1.8 mM BaCl2 instead of CaCl2 was used. The inward current was monitored at a holding potential of −80 mV. Calcium ion activated Cl^− current was monitored by applying 500-mscc depolarizing pulses of +100 mV and +50 mV from the holding potential of −80 mV. Adiponectin was supplied to the superfusing bath solution via a silicon tube connected to computer-driven solenoid valves. Data acquisition and analysis were carried out using Digidata 1322A and pCLAMP software.

soleus muscle = assay: Calcium imaging in skeletal muscle (soleus); type: cell-based, mice; settings: adiponectin 30 μg/ml
Protocol: From 8-10 weeks-old mice, soleus muscles were dissected. Preparations were treated with 5 μM fura-2/AM in the presence of 0.1% Chremophore EL (Sigma) for 15 min. Fluorescence images were acquired using an inverted fluorescence microscopy (IX71, Olympus) equipped with a cooled charge-coupled device (CCD) camera (iXon, Andor) and a dry objective lens (10×, NA=0.3, Olympus) through a filter set consisting of a 327-353 nm and 369-391 nm excitation filter, a 409 nm dichroic mirror, and a 515-560 nm fluorescent filter. Ligands were supplied using the superfusing Ringer's solution (150 mM NaCl, 4 mM KCl, 2.0 mM CaCl2, 1.0 mM MgCl2, 30 mM D-glucose, 5 mM HEPES (pH 7.4)).

PGC-1α (Ppargc1a) = assay: Ppargc1a mRNA levels in skeletal muscle in vivo; set-up: species or system mice; settings: control littermates; 30 μg per 10 g body weight, 10 min
Protocol: Mouse full-length adiponectin was generated as described in the following documents (Nature Med. 8, 1288-1295 (2002); Nature Med. 7, 941-946 (2001); Nature 423, 762-769 (2003)).
Real-time PCR was carried out according to the method described in the following documents (Nature Med. 13, 332-339 2007); Nature 423, 762-769 (2003); J. Biol. Chem. 281, 8748-8755 (2006)). Total RNA was prepared from cells or tissues by using Trizol (Invitrogen) according to the manufacturer's instructions. Quantification of mRNA was conducted using a real-time PCR method (Nature 423, 762-769 (2003)) with slight modifications. The procedures used for immunoblotting are described in the following documents (Nature Med. 7, 941-946 (2001); J. Biol. Chem. 281, 26602-26614 (2006); J. Biol. Chem. 281, 8748-8755 (2006)). The livers or muscles were freeze-clamped in liquid nitrogen in situ (Nature Med. 7, 941-946 (2001); J. Biol. Chem. 281, 26602-26614 (2006); J. Biol. Chem. 281, 8748-8755 (2006)).

C2C12 myocytes = assay: Patch clamp test, whole-cell current in C2C12 myocytes; type: cell-based, mouse; settings: adiponectin 30 μg/ml 30 sec, holding potential -60 mV
Protocol: Whole-cell currents were amplified with a patch-clamp amplifier (CEZ-2400; Nihon Kohden) and were digitized with a PowerLab digitizer (AD Instruments). Ringer's solution was used for the extracellular solution. The electrode solution contained 140 mM KCl, 10 mM HEPES, 5 mM EGTA-2K, and 10 mM D-glucose (pH 7.4). The data were low-pass filtered at 2 kHz and were sampled at 20 kHz. Ligands dissolved in Ringer's solution were applied at least twice with a self-made pressure-ejection system and via a two-barreled glass capillary.

calcium-ion activated Cl- current response (AdipoR1; control oocytes without AdipoR1 cRNA): not observed
inward current response (AdipoR1; oocytes expressing AdipoR1, adiponectin 30 μg/ml, holding potential -80 mV): induced inward current responses
intracellular calcium levels by calcium-ion activated Cl- current (AdipoR1; oocytes injected with AdipoR1 cRNA, adiponectin 30 μg/ml): increase in intracellular calcium levels
B1: adiponectin (protein, UniProt Q60994 1-247, looked up)
chain: MLLLQALLFLLILPSHAEDDVTTTEELAPALVPPPKGTCAGWMAGIPGHPGHNGTPGRDGRDGTPGEKGEKGDAGLLGPKGETGDVGMTGAEGPRGFPGTPGRKGEPGEAAYVYRSAFSVGLETRVTVPNVPIRFTKIFYNQQNHYDGSTGKFYCNIPGLYYFSYHITVYMKDVKVSLFKKDKAVLFTYDQYQEKNVDQASGSVLLHLEVGDQVWLQVYGDGDHNGLYADNVNDSTFTGFLLYHDTN
modifications: full-length
notes: adipokine, internal ligand of adiponectin receptor 1; recombinant murine full-length adiponectin
phosphorylation of AMPK α-subunits at Thr 172 (AMPK): increased the phosphorylation of the AMPK α-subunits at Thr 172
PGC-1α acetylation (PGC-1α): decreased PGC-1α acetylation
HDAC5 phosphorylation (HDAC5): increased HDAC5 phosphorylation
intracellular calcium ion concentration in soleus muscle (fura-2) (soleus muscle; control mice): increased the intracellular calcium ion concentration
calcium responses of soleus muscle (soleus muscle; muscle-R1KO mice): almost completely disappeared
expression levels of Ppargc1a in muscle (PGC-1α (Ppargc1a)): increased the expression levels of Ppargc1a in the muscle of control littermates
whole-cell inward current response (C2C12 myocytes): Inward current responses to adiponectin were observed
